We go through one molecule from US20080292619A1, “Pharmaceutical Composition Containing Meltrin Antagonist” (MOCHIDA PHARMACEUTICAL CO., LTD., priority 2004, published 2008).

The assay deals with T1, meltrin α (Homo sapiens, UniProt O43184, E208G/T209S).
T1 construct: had been converted to mature meltrin α having the prodomain deleted (molecular weight 68 kDa); made in house; host or cells: COS-1
T1 sequence (O43184 208-738 isoform O43184-2 E208G/T209S): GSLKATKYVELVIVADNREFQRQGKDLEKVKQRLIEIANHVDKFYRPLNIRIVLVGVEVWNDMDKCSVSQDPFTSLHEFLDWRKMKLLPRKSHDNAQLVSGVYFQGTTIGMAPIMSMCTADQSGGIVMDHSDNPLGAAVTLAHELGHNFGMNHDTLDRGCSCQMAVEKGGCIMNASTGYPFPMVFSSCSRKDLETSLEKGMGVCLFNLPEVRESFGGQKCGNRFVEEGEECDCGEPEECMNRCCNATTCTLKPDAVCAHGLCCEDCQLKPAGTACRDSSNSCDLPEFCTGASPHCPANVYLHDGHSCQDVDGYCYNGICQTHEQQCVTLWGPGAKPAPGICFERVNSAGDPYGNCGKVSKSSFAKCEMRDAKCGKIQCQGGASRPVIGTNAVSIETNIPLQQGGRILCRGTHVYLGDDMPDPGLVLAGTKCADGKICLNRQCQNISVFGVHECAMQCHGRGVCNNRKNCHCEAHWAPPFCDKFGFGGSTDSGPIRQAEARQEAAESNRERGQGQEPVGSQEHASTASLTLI
The assay is described as follows: Inhibition of protease activity of meltrin α (rhIGF-BP3 cleavage, western blotting). The assay is classed as biochemical. Particulars: antibody 300 μg/mL; rhIGF-BP3 band. Here is the method:
Thrombin (Amersham Biosciences) was added to the purified meltrin α-STFLAG prepared in Example 5, and mixture was kept at 25° C. for 15 hours. When the solution after the reaction was examined by repeating the procedure of Example 5, the human meltrin α containing the prodomain (molecular weight 92 kDa) had been converted to mature meltrin α having the prodomain deleted (molecular weight 68 kDa). For measuring the enzymatic activity of the meltrin α, the solution after the prodomain cleavage with thrombin followed by inactivation of the thrombin by 10 mM APMSF (Wako Pure Chemical Industries, Ltd.) was used. The disappearance of the thrombin activity was confirmed by using the synthetic substrate for the thrombin on the reaction solution. […]
The anti-human meltrin α antibodies produced in Examples 6 and 7 were evaluated on their activity for inhibiting protease activity of meltrin α by using the protease activity assay system of Example 9. […] After the reaction, the reaction solution was electrophoresed by SDS-PAGE, and the rhIGF-BP3 was detected by western blotting.
According to the method of Example 9, activity of the low molecular weight compound for inhibiting protease activity of the meltrin α was assayed as described below. […] After the reaction, the reaction solution was electrophoresed by SDS-PAGE, and the rhIGF-BP3 was detected by western blotting.

B1: F1196-113-1: anti-meltrin α monoclonal antibody clone (antibody, V domains shown)
VH: EVKLLESGGGLVQPGGSLKLSCAASGFDFSRYWMSWVRQAPGKGLEWIGEINPDSSTINYTPSLKDKFIISRDNAKNTLYLHMSKVRSEDTALYYCARPDSYYRYYAMDYWGQGTSVTVSSAKTTA
VL: DIQMTQTTSSLSASLGDRVTISCRASQDISNYLNWYQQKPDGTVKLLIYYTSRLHSGVPSRFSGSGSGTDYSLTISNQEQEDIATYFCQQGNTLPYTFGGGTKLEIKR
For the molecule B1, the “activity for inhibiting protease activity of meltrin α” value is “inhibitory activity for the meltrin α protease activity has been confirmed”.
